These results are taken from patent publication US20080044412A1, “Single-Domain Antibody Strengthening Fusion Protein Vh-Ldp-Ae” (INSTITUTE OF MEDICINAL BIOTECHNOLOGY CHINESE ACADEMY OF …, priority 2004, published 2008).

One may read the IC50 as the concentration that inhibits the measured activity by half. The low end stands for higher potency, the high end for lower potency.

The test system of one series is transplanted hepatoma 22. Description: Transplanted hepatoma 22 growth in mice. To be noted: for Inhibition rate / Tumor volume x ± s: tail vein, day 14. As for the experimental part:
Kunming mice, weighing between 18-22 g, were randomly separated into different groups of 10 mice each. On day 0, hepatoma 22 cells (1.5×10^6 cells/0.2 ml/mouse) diluted with saline were transplanted subcutaneously into the right axilla of mice. On day 1 (after 24 h), the therapy was started and VH-LDP-AE at different doses, LDM at 0.05 mg/kg, mitomycin (MMC) at 1 mg/kg were administered respectively to the tumor bearing mice (0.2 ml/mouse) by injection into the tail vein. Mice of control group were injected with saline. Diameters of the tumors were measured every 3 days during the experiment. Weights of the mice were recorded. The tumor volumes were calculated with the following formula: V=0.5ab^2, where a and b is the long and the perpendicular short diameters of the tumor, respectively. The curves of tumor growth were plotted and the inhibition rates were calculated.

For a further series, the system named is HT-1080 cells. Description: MTT cytotoxicity assay, HT-1080. In kind it is cell-based. To be noted: 72 h. Here is the method: (§1) MTT assay was used. After digestion and counting, cells in exponential growth phase were seeded at 3000 cells/well in 96-well plates, and cultured at 37° C. in 5% CO2 for 24 hours. Drugs of various concentrations were added with 3 aliquots, and the cells were cultured for another 72 h. 50 μl of MTT (2 mg/ml) in serum-free RPMI 1640 were added into each well, and the cells were cultured at 37° C. for 4 h. Remove the culture medium gently; add 150 μl DMSO each well; incubate at room temperature for 15 min on a shaker; measure the absorbance at 560 nm on a microplate reader. Survival ratio and IC50 values were calculated according to the following equation: Survival ratio=(Atest−Ablank)/(Acontrol−Ablank)×100%.
In general terms: Tetrazolium assays rely on reduction of a dye to a coloured formazan, in cell work by metabolically active cells.

In a further series the test system is KB cells. The series can be described thus: MTT cytotoxicity assay, KB. In kind it is cell-based, human. The following applies: 72 h. As for the experimental part: as §1
The test system of a further series is PG cells. Description: MTT cytotoxicity assay, PG. In kind it is cell-based. The following applies: 72 h. Here is the method:
as §1

In a further series the test system is colon carcinoma 26. To be noted: cited from earlier work.
The next series deals with hepatoma Bel-7402. To be noted: nude mice; cited from earlier work.
The subject of another series is cecum carcinoma Hce-8693. The following applies: nude mice; cited from earlier work.
The subject of the next series is type IV collagenase. The series can be described thus: ELISA immunoreactivity with type IV collagenase. It counts as binding. To be noted: FIG. 4. Here is the method:
(§2) Immunoreactivity of fusion protein VH-LDP was detected by ELISA. At first, type IV collagenase or tumor cells was coated or fixed to 96-well ELISA plates: well was coated with 100 μl of type IV collagenase (10 μg/ml, diluted by PBS) and the plates were stored at 4° C. overnight; Human hepatoma SMMC-7721 cells or human KB cells were seeded at 10^4/well in 96-well plates and cultured for 24 h, washed with PBS for 3 times, added 0.05% cold (4° C.) Glutaraldehyde and fixed for 15 min. Then the coated or fixed plates were washed with PBS 3 times, and blocked with 200 μl/well of 1% bovine serum albumin (BSA)/PBS at 4° C. overnight. The plates were washed 3 times with PBS. Then 200 μl of serial concentrations of fusion protein VH-LDP were added into each well of the plates and incubated for 2 hours at 37° C. Washing the plates 3 times with 0.05% Tween 20/PBS (PBST), adding 50 μl of anti-His6-Tag monoclonal antibody diluted 1:1500 to each well, and incubating at 37° C. for 1 h. Washing the plates 3 times with PBST, adding 50 μl of HRP conjugated goat anti-mouse IgG (at 1:2000 dilution), and incubating at 37° C. for 1 hour. Washing the plates with PBST 6 times, adding 100 μl of OPD substrate reaction solution to each well, incubating the plates at room temperature for 10 min in the dark. […] Then the optical density (OD) of each well was measured at 490 nm using a microplate reader.

Series [1] concerns human hepatoma SMMC-7721 cells. Description: ELISA immunoreactivity with fixed SMMC-7721 cells. It counts as binding. The following applies: FIG. 5. Here is the method:
as §2

Series [2] has as its system solid tumor of mouse hepatoma 22. Description: Immunohistochemical (SABC) staining of mouse hepatoma sections. In kind it is binding. The following applies: FIG. 7. As for the experimental part:
(§3) Immunohistochemical (IHC) staining was performed by streptavidin-biotin-peroxidase complex (SABC) staining with SABC kit (Boster Company). The sections were blocked by normal goat serum for 20 min at room temperature and the excessive liquid was removed. The sections without washing were added with diluted said VH-LDP fusion protein as prepared in example 3 and incubated at room temperature; then diluted anti-His6-tag antibody and biotinylated goat-anti-mouse IgG were added in turn. Finally SABC reagent was added. DAB kit was used as a chromogen for visualized reaction at room temperature. The sections were counter-stained by hematoxylin, dehydrated, cleared, sealed, and observed with microscope.

The subject of series [3] is mouse normal liver sections. The series can be described thus: Immunohistochemical (SABC) staining of mouse normal liver sections. In kind it is binding. To be noted: FIG. 7. Here is the method: as §3
Series [4] concerns type IV collagenase secreted by HT-1080 cells. Description: Gelatin zymography in HT-1080 cells. In kind it is cell-based. To be noted: 24 h, 25, 50, 100 μM (FIG. 8), dependent on concentration. Here is the method: Gelatin zymography protocol was used. Exponentially growing HT-1080 cells were seeded at 10^5/well in 24-well plates and incubated at 37° C. in 5% CO2. After 24 h, the culture medium was removed and 1 ml serum-free RPMI 1640 medium was added for washing twice. Add 120 μl of serum-free RPMI 1640 medium and 30 μl of fusion protein VH-LDP as prepared in example 3 to each well, and add 30 μl PBS to control well. Culturing the cells at 37° C. for 24 h. Harvest the culture medium, and centrifuging at 500 g for 5 min. Then take the supernatant for non-denaturalization electrophoresis on SDS-PAGE. Wash the gels with distilled water 3 times. Put the gels into 100 ml of 2.5% TritonX-100, shake on a shaker for 30 min at low speed. Then Wash the gels 2 times with distilled water; repeat the washing process with TritonX-100 above. The gels was washed with distilled water 2 times, and incubated at 37° C. for 16-18 h in 100 ml of gelatinase buffer (50 mM Tris-HCl, pH 7.5, 200 mM NaCl, 10 mM CaCl2, 1 μM ZnCl2). The gels were stained with Coomassie-brilliant blue R-250 and destained with acetic acid: methanol:water (10:45:45). The negative stained bands were observed.

The nature of series [5]: State of refolded fusion protein in PBS solution. It counts as physicochemical. As for the experimental part:
The inventors attempted to make fusion gene in the form of VH-LDP by fusing VH domain against type IV collagenase to apoprotein LDP of LDM, and then expressing the fusion protein in E. coli.
The fusion protein VH-LDP after purification was refolded: the purified protein was diluted to a final concentration of 15 μM with eluting buffer mentioned above, and β-mercaptoethanol was added to a final concentration of 10 mM. After being stored at room temperature for 30 min, the sample was placed in a dialysis bag and dialyzed against at least 50 vol. of refolding buffer 1 (50 mM Tris-HCl pH 8.0, 1 mM EDTA, 200 mM NaCl, 6 M urea). And the following dialysis was against the same buffer with step-wise reduction in the urea concentration (3M, 2M, 1M, 0.5M, and 0M). On a 1-M stage, 750 μM of glutathione (GSSG) and 400 mM of L-Arginine were added to the dialysis buffer. Then the sample was dialyzed against 50 vol. of PBS solution (pH 7.4). Each dialysis was performed for 12 h and with buffer changed twice. All dialysis was performed at 4° C. After dialysis, the sample was centrifuged at 10,000 g for 30 min at 4° C. and the supernatant was collected. After being condensed, the active fusion protein VH-LDP was obtained and stored at −20° C. for later use.

In series [6] the test system is bFGF-stimulated angiogenesis. The series can be described thus: Chick embryo allantoic membrane (CAM) anti-angiogenesis assay. The following applies: 72 h, 0.5 μg/egg (FIG. 10). In kind it is in vivo. Here is the method:
Anti-angiogenic activity of VH-LDP-AE was examined in chick embryoallantoic membrane assay (CAM). The surface of 7-day-old post-fertilization chick eggs (White Leghorn) in a 60% humidified incubator at 37° C. was sterilized and the CAM was […]) exposed by cutting a window (2 cm^2) on the egg shell using the false air-sac technique. After 24 h, 10 μl of bFGF was dipply added to agarose disks with the energized fusion protein VH-LDP-AE at various concentrations which was prepared as mentioned in Example 7, and then the disks were placed on top of the CAM. After the windows were sealed with transparent tape, the eggs were incubated for further 72 h.

In series [7] the test system is human colon carcinoma HT-29 cells. The series can be described thus: MTT combination assay on HT-29 cells (CDI). It counts as cell-based. To be noted: HT-29, MTT. As for the experimental part:
MTT assay was used. After trypsin-EDTA digestion, the human colon carcinoma HT-29 cells in exponential growth were seeded at 4000 cells/well in 96-well plates, and cultured for 24 hours. Then add 20 μl of different concentrations of hydroxylcamptothecin or 5-fluorouracil; 8 hours later, add different concentrations of VH-LDP-AE. Continue to culture the cells at 37° C. in 5% CO2 for 72 h. Add 50 μl of MTT at concentration of 2 mg/ml, culture the cells at 37° C. for 4 hours. Then remove the supernatant; add 150 μl DMSO each well; ten minutes later, measure the absorbance at 560 nm on a microplate reader. In cancer pharmacology, interactions of drug combination were evaluated by coefficient of drug interaction (CDI). There existed synergistic effects with CDI<1, and there existed very significant ones with CDI<0.7. […] It was usual that monoclonal antibodies were combined with anti-cancer drugs.

Values joined by “and” are separate entries in the source; they are usually repeats but may differ in a detail not shown here. Equal entries are not always repeated.

In the series with transplanted hepatoma 22 (1 mg/kg, begin), `CO[C@@]12[C@H](COC(N)=O)C3=C(C(=O)C(C)=C(N)C3=O)N1C[C@@H]1N[C@@H]12` [MMC, mitomycin] had a Body weight begin of 18.82 g. This molecule also returned a Body weight end in the series on transplanted hepatoma 22 (1 mg/kg, end (day 14)) of 29.29 g. The Inhibition rate with transplanted hepatoma 22 (1 mg/kg) is listed as 51.5^Δ %; in the series with transplanted hepatoma 22 (1 mg/kg, listed as mitomycin), 51.5%. Also, the “Tumor volume x ± s” value with transplanted hepatoma 22 (1 mg/kg) was determined as 2.23 ± 2.15 cm^3.

lidamycin [LDM]: the IC50 in the series with HT-1080 cells came out at 2.21 pM; in the series on KB cells it was 1.08 pM; in the series on PG cells it was 6.3 pM. In addition, the Inhibition rate with transplanted hepatoma 22 (0.05 mg/kg) was 79.6% and 79.6^ΔΔ %. The “Tumor volume x ± s” value in the series on transplanted hepatoma 22 (0.05 mg/kg) came to 0.94 ± 0.53 cm^3. The same molecule displayed a maximal tolerated dose with transplanted hepatoma 22 (mice) of 0.05 mg/kg. Besides, the “growth of colon carcinoma 26 in mice” value in the series on colon carcinoma 26 was “remarkably inhibited”. For the same molecule, in the series on hepatoma Bel-7402, the “growth of human cancer xenograft hepatoma Bel-7402” value was “potent inhibitory effect”. For the same molecule, the “growth of human cancer xenograft cecum carcinoma Hce-8693” value in the series on cecum carcinoma Hce-8693 is listed as “potent inhibitory effect”.

B1: VH-LDP: VH domain of anti-type IV collagenase mAb 3G11, GGGGS spacer, lidamycin apoprotein LDP and His6-Tag; SEQ ID NO: 2 (protein)
chain: MQVKLQQSGTEVVKPGASVKLSCKASGYIFTSYDIDWVRQTPEQGLEWIGWIFPGEGSTEYNEKFKGRATLSVDKSSSTAYMELTRLTSEDSAVYFCARGDYYRRYFDLWGQGTTVTVSSGGGGSAPAFSVSPASGLSDGQSVSVSVSGAAAGETYYIAQCAPVGGQDACNPATATSFTTDASGAASFSFVVRKSYTGSTPEGTPVGSVDCATAACNLGAGNSGLDLGHVALTFGLEHHHHHH
modifications: fusion protein of Vh and LDP
In the case of B1, the “binding activity to type IV collagenase” value in the series with type IV collagenase is reported as “positive”. Also, the “binding activity to human hepatoma SMMC-7721 cells” value in series [1] is reported as “positive”. The “immunohistochemical staining in mouse hepatoma sections” value in series [2] is “positively stained”. Besides, the “immunohistochemical staining in mouse normal liver sections” value in series [3] is listed as “negatively stained”. The “inhibition of type IV collagenase activity secreted by cancer cells” value in series [4] is “inhibit significantly”. The solubility after refolding entry in [5] is listed as “soluble in PBS solution”. In addition, the “fraction existing in monomer state” value in [5] (after refolding) was found to be 75%.

B2: VH-LDP-AE (conjugate)
chain: B1 chain
modifications: AE chromophore assembled; fusion protein of Vh and LDP
Consider B2, for which the “suppression of angiogenesis stimulated by bFGF” value in series [6] is listed as “significantly suppress angiogenesis”. In addition, the Inhibition rate with transplanted hepatoma 22 (0.125 mg/kg) was 88.1% and 88.1*^ΔΔ %; in the series on transplanted hepatoma 22 (0.25 mg/kg), 95.9% and 95.9**^ΔΔ %. In addition, the “Tumor volume x ± s” value with transplanted hepatoma 22 (0.125 mg/kg) came out at 0.55 ± 0.24 cm^3; in the series on transplanted hepatoma 22 (0.25 mg/kg), 0.19 ± 0.21 cm^3. The “effect on growth of hepatoma 22 in mice” value with transplanted hepatoma 22 (both 0.25 mg/kg and 0.125 mg/kg, more potent than free lidamycin 0.05 mg/kg (FIG. 11)) was “inhibited or retarded the growth”. In addition, the “body weight loss and side-effects during the experiments” value in the series on transplanted hepatoma 22 (mouse, in vivo) is “No body weight loss and other severe side-effects were found”. Moreover, the “coefficient of drug interaction (CDI)” value in [7] (10 μM of 5-fluorouracil plus 3 ng/ml of VH-LDP-AE) and in series [7] (hydroxylcamptothecin (1 μM) plus VH-LDP-AE (3 ng/ml)) was less than 0.7 in each case.
